According to paper PMC10011603, “TRAK adaptors regulate the recruitment and activation of dynein and kinesin in mitochondrial transport” (Nature Communications, 2023):

Columns and labels:
[1] = biological target: T1, full-length TRAK1 (TRAK1^1–953) (human, UniProt Q9UPV9 1-953); assay: single-molecule TIRF colocalisation on microtubules; three-colour imaging of Alexa488-KIF5B, LD555-TRAK1 1-532 (or full-length TRAK1) and LD655-Miro1 1-592; 10 nM MAP7; 0, 0.1 and 2 mM Ca2+; details: both partners purified
T1 construct: TRAK1, human, residues 1-953, full length; source: HEK 293 F GNTI-/- cells, PEI transfection, purified (TRAK purification procedure); not shown: His6-ZZ, N-terminal, cleaved; SNAP-tag or GFP, C-terminal, kept
T1 sequence (looked up): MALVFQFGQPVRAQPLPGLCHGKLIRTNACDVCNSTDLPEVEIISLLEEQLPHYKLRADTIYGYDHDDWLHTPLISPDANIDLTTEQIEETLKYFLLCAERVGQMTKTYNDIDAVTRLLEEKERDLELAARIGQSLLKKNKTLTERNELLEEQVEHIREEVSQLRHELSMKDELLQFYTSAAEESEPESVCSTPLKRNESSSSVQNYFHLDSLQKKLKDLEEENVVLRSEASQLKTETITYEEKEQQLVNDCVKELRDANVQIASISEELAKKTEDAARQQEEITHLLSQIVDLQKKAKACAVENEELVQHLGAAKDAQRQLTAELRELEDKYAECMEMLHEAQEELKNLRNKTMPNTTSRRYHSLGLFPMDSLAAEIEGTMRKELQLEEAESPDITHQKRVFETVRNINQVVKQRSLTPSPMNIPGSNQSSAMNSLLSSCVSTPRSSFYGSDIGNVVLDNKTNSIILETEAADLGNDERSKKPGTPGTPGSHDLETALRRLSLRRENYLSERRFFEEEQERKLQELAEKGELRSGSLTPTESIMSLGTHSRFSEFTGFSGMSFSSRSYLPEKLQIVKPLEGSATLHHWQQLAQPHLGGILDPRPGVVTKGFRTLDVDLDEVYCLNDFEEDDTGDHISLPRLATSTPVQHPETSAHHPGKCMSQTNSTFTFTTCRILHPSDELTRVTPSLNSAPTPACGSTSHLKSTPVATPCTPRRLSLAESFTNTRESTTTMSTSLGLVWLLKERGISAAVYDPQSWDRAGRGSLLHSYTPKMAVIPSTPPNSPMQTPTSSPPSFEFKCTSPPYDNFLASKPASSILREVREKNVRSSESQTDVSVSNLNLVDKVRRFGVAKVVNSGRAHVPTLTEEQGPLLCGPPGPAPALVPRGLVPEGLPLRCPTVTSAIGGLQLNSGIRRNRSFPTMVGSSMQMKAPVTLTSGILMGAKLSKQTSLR

[2] = biological target: T2, full-length TRAK2 (TRAK2^1–914) (human, UniProt O60296 1-914); assay: co-IP; purified proteins, 10 µg each, GFP-Trap beads, MB buffer with 100 mM NaCl and BSA; KIF5B-GFP-SNAPf, Miro1 1-592 and TRAK1 1-532, full-length TRAK1 or full-length TRAK2; with GTPγS or GDP; 0, 100 nM or 2 mM Ca2+; details: both partners purified
T2 construct: TRAK2, human, residues 1-914, full length; source: HEK 293 F GNTI-/- cells, PEI transfection, purified (TRAK purification procedure); not shown: His6-ZZ, N-terminal, cleaved; SNAP-tag or GFP, C-terminal, kept
T2 sequence (looked up): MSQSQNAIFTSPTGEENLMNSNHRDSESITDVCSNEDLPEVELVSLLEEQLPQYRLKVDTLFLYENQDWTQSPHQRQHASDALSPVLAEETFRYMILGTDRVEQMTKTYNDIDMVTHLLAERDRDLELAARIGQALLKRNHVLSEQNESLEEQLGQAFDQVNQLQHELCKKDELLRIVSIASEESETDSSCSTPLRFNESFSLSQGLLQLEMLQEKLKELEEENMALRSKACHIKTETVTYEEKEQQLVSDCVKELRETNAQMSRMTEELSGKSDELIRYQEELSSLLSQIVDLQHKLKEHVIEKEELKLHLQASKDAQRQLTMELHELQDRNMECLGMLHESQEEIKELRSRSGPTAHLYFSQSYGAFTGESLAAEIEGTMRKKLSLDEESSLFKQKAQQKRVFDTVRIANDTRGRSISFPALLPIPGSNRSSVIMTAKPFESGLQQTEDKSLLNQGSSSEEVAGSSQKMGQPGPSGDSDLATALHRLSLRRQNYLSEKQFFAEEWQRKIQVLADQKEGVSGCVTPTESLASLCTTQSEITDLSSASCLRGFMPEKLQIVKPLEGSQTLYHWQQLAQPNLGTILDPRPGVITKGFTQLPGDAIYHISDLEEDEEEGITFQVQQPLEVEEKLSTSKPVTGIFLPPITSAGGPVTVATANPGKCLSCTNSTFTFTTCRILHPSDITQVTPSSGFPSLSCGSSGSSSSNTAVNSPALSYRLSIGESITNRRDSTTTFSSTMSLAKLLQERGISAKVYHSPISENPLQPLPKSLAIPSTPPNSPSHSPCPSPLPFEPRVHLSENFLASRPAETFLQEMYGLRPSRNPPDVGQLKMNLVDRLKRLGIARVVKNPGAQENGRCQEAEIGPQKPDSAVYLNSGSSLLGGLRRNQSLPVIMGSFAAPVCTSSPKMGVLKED

B1: Miro1^1–592 (Miro1^1–592-SNAP-psc-StrepII) (domain or fragment, human, UniProt Q8IXI2 1-592, looked up)
chain: MKKDVRILLVGEPRVGKTSLIMSLVSEEFPEEVPPRAEEITIPADVTPERVPTHIVDYSEAEQSDEQLHQEISQANVICIVYAVNNKHSIDKVTSRWIPLINERTDKDSRLPLILVGNKSDLVEYSSMETILPIMNQYTEIETCVECSAKNLKNISELFYYAQKAVLHPTGPLYCPEEKEMKPACIKALTRIFKISDQDNDGTLNDAELNFFQRICFNTPLAPQALEDVKNVVRKHISDGVADSGLTLKGFLFLHTLFIQRGRHETTWTVLRRFGYDDDLDLTPEYLFPLLKIPPDCTTELNHHAYLFLQSTFDKHDLDRDCALSPDELKDLFKVFPYIPWGPDVNNTVCTNERGWITYQGFLSQWTLTTYLDVQRCLEYLGYLGYSILTEQESQASAVTVTRDKKIDLQKKQTQRNVFRCNVIGVKNCGKSGVLQALLGRNLMRQKKIREDHKSYYAINTVYVYGQEKYLLLHDISESEFLTEAEIICDVVCLVYDVSNPKSFEYCARIFKQHFMDSRIPCLIVAAKSDLHEVKQEYSISPTDFCRKHKMPPPQAFTCNTADAPSKDIFVKLTTMAMYPHVTQADLKSSTF
modifications: LD655 dye on the SNAP tag in motility assays
notes: mitochondrial Rho GTPase 1 (Miro1), human, residues 1-592, lacks the transmembrane domain; A PreScission site (psc) stands between SNAP and StrepII; no cleavage is told; also called Miro1^1–592-StrepII; Miro1^1–592-SNAPf-StrepII; source: purified (Streptactin Sepharose, eluted with desthiobiotin); not shown: SNAP, C-terminal, kept; StrepII, C-terminal, kept
binding result [1]: binds | binding result [2]: binds
